Experimental data taken from publication PMC8209680 (Cell reports, 2021).

Target: Mtb ClpB M-domain motif 2 protein (residues 467–518) (Mycobacterium tuberculosis, UniProt P9WPD1 467-518)
Assay: ITC

Chain of Mtb ClpB M-domain motif 2 protein (residues 467–518) (P9WPD1 467-518): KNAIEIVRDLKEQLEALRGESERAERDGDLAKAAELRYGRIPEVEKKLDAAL

B1: Mtb DnaK NBD (residues 1–359) (domain or fragment)
chain: MARAVGIDLGTTNSVVSVLEGGDPVVVANSEGSRTTPSIVAFARNGEVLVGQPAKNQAVTNVDRTVRSVKRHMGSDWSIEIDGKKYTAPEISARILMKLKRDAEAYLGEDITDAVITTPAYFNDAQRQATKDAGQIAGLNVLRIVNEPTAAALAYGLDKGEKEQRILVFDLGGGTFDVSLLEIGEGVVEVRATSGDNHLGGDDWDQRVVDWLVDKFKGTSGIDLTKDKMAMQRLREAAEKAKIELSSSQSTSINLPYITVDADKNPLFLDEQLTRAEFQRITQDLLDRTRKPFQSVIADTGISVSEIDHVVLVGGSTRMPAVTDLVKELTGGKEPNKGVNPDEVVAVGAALQAGVLKGE
  stoichiometry N: ~1
